Results from patent US20250026849A1 (ARCELLX, published 2025).

Experiments:
CD123 = molecular target: T1, CD123 (Homo sapiens (Human), UniProt P26951 19-305, limits assumed); assay: ELISA, format not described; design: unit not given here
T1 sequence: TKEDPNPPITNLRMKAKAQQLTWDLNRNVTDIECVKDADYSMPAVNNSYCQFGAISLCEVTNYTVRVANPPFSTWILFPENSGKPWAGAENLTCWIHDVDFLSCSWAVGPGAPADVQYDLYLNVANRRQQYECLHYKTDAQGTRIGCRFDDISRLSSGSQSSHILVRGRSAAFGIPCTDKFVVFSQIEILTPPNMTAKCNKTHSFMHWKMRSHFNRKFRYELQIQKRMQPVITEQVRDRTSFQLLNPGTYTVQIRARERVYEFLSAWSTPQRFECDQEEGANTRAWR

[1] = molecular target: T2, extracellular domain of human CS1 protein (human, UniProt Q9NQ25 23-226); assay: phage display panning
T2 construct: Panning target; also called CS1 mature ECD
T2 sequence: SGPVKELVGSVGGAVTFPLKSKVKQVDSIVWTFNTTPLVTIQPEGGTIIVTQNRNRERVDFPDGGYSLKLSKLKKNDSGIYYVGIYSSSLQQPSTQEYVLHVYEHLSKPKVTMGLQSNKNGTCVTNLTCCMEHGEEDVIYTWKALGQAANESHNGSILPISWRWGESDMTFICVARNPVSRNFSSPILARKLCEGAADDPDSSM

HER2 = molecular target: T3, HER2 (human, UniProt P04626 23-652); assay: ELISA, format not described; design: unit not given here
T3 construct: also called ERBB2; CD340

[2] = molecular target: T4, extracellular domain of human HER2 protein (human, UniProt P04626 23-652); assay: phage display panning
T4 construct: Panning target; also called HER2 mature ECD; HER2 (ERBB2, CD340)

B1: D-domain SEQ ID NO: 340 (designed binder)
chain: MGSWIEFNMRVLAIEDRLWALGGSEAELAAFEKEIAAFESELQAYKGKGNPEVESLRYEACLDPWSSAAYRHN
With B1 as the binder, how does the ELISA_avg (CD123) read?
The ELISA_avg was 3.2.

B2: D-domain SEQ ID NO: 343 (designed binder)
chain: MGSWFEFWDRLEAIDDRLFALGGSEAELAAFEKEIAAFESELQAYKGKGNPEVESLRYNAAEIRKELQAYRHN
With B2 as the binder, how does the ELISA_avg (CD123) read?
Its ELISA_avg is 4.9.

B3: D-domain SEQ ID NO: 345 (designed binder)
chain: MGSWYEFWIRLEAIDDRLFALGGSEAELAAFEKEIAAFESELQAYKGKGNPEVDILRDFAADIRTELQAYRHN
Which ELISA_avg (CD123) does the source give for B3 here?
Its ELISA_avg is 10.4.

B4: D-domain SEQ ID NO: 347 (designed binder)
chain: MGSWEEFWDRLFAIDDRLWALGGSEAELAAFEKEIAAFESELQAYKGKGNPEVETLRNEAAEIRMALQAYRHN
With B4 as the binder, how does the ELISA_avg (CD123) read?
Its ELISA_avg is 3.1.

B5: D-domain SEQ ID NO: 344 (designed binder)
chain: MGSWHEFWSRLDAIDDRLFALGGSEAELAAFEKEIAAFESELQAYKGKGNPEVEYLRGAAADIRAELQAYRHN
B5 was tested. Which ELISA_avg (CD123) did it give?
Its ELISA_avg is 3.8.

B6: D-domain SEQ ID NO: 346 (designed binder)
chain: MGSWHEFWDRLEAIDDRLYALGGSEAELAAFEKEIAAFESELQAYKGKGNPEVEFLREEAAYIRELLQAYRHN
For B6, which ELISA_avg (CD123) is on record?
The ELISA_avg was 10.6.

B7: D-domain SEQ ID NO: 348 (designed binder)
chain: MGSWWEFDDRLFAIDTRLMALGGSEAELAAFEKEIAAFESELQAYKGKGNPEVESLREWAATIRMELQAYRHN
For B7, which ELISA_avg (CD123) is on record?
Its ELISA_avg is 3.5.

B8: cc09 CS1 ADBD (SEQ ID NO: 788) (designed binder)
chain: MGSWNEFKLELAFIKDWLEALGGSEAELANFEEAIAEFEAGLQGYKGKGNPEVEALRKEAAAIRDELQAYRHN
Does B8 bind [1]?
Result: binds

B9: D-domain SEQ ID NO: 341 (designed binder)
chain: MGSWIEFHERLWAIEDRLWALGGSEAELAAFEKEIAAFESELQAYKGKGNPEVESLREMAASIRHGLQAYRHN
B9 was tested. Which ELISA_avg (CD123) did it give?
The ELISA_avg was 3.4.

B10: D-domain SEQ ID NO: 342 (designed binder)
chain: MGSWFEFYERLWAIDDRLWALGGSEAELAAFEKEIAAFESELQAYKGKGNPEVEWLREEAASIRSSLQAYRHN
B10 was tested. Which ELISA_avg (CD123) did it give?
The ELISA_avg was 6.

B11: cc01 CS1 ADBD (SEQ ID NO: 780) (designed binder)
chain: MGSWVEFEARLSAIYERLEALGGSEAELAAFEKEIAAFESELQAYKGKGNPEVEKLRRHAAGIRSNLQAYRHN
Does B11 bind [1]?
Result: binds

B12: cc08 CS1 ADBD (SEQ ID NO: 787) (designed binder)
chain: MGSWVEFNERLHAIYLRLDALGGSEAELAAFEKEIAAFESELQAYKGKGNPEVETLRRHAAGIRWQLQAYRHN
Does B12 bind [1]?
Result: binds

B13: cc02 CS1 ADBD (SEQ ID NO: 781) (designed binder)
chain: MGSWVEFFVRLDAIWERLEALGGSEAELAAFEKEIAAFESELQAYKGKGNPEVETLRFHAAGIRQKLQAYRHN
Does B13 bind [1]?
Result: binds

B14: cc10 CS1 ADBD (SEQ ID NO: 789) (designed binder)
chain: MGSWMEFEARLEAIWDRLEALGGSEAELAAFEKEIAAFESELQAYKGKGNPEVESLRFHAAGIRQHLQAYRHN
Does B14 bind [1]?
Result: binds

B15: D domain SEQ ID NO: 800 (designed binder)
chain: MGSWHEFRWRLFAIWQRLHALGGSEAELAAFEKEIAAFESELQAYKGKGNPEVEWLRLDAALIRVMLQAYRHN
For B15, which ELISA_avg (HER2) is on record?
Its ELISA_avg is 10.

B16: eb03 HER2 ADBD (SEQ ID NO: 804) (designed binder)
chain: MGSWAEFRWRLHAIWLQLGALGGSEAELAAFEKEIAAFESELQAYKGKGNPEVEWLRQDAAQIKYILQAYRHN
Does B16 bind [2]?
Result: binds

B17: cc12 CS1 ADBD (SEQ ID NO: 791) (designed binder)
chain: MGSWHHFKMHLAGIKLQLEALGGSEAELAEFEEWIADFEGALQDYKGKGNPEVEALRKEAAAIRDELQAYRHN
Does B17 bind [1]?
Result: binds
